Assay results: patent US20260028417A1 (SICHUAN KELUN BIOTECH BIOPHARMACEUTICAL, published 2026)

T1: monkey HER3 protein (extracellular sequence with six histidines at the C-terminal) (monkey)
T1 construct: Made in HEK293 cells; also called Monkey HER3-His
T1 chain: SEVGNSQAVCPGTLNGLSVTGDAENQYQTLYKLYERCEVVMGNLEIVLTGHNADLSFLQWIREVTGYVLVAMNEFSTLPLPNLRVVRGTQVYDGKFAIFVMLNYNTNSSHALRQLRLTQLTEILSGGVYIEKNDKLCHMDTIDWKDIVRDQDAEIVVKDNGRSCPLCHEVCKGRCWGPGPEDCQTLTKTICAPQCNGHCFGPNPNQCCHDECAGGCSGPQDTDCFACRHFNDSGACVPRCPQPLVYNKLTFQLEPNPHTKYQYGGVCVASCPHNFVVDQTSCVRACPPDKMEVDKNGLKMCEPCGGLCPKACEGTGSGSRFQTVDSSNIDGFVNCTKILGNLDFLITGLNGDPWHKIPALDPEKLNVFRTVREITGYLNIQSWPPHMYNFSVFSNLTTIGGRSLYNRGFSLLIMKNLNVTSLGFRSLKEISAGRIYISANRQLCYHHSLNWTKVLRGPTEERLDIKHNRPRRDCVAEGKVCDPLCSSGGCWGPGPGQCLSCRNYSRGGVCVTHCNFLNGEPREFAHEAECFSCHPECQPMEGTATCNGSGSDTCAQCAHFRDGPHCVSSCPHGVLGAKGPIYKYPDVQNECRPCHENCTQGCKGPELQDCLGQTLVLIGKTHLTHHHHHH

B1: 47A3E3-hIgG (anti-human HER3 fully human antibody) (antibody, V domains shown)
VH: EVQLQESGPGLVKPSQTLSLTCAISGDSVSSSQSTWNWIRQSPSRGLEWLGRTFYRSRWYNDYALSMKSRITINPDTSKNQFSLQLNPVTPEDTAVYYCARDTYYYGSGGFDYWGQGSRVTVSS
VL: DIQMTQSPSTLSASVGDRVTITCRASQSLSRWLAWYQQKPEKAPKLLIYKASSLESGVPSRFSGSGSGTEFTLTISTLQPDDFATYYCQQYKNYYSFGQGTKLEIKR
notes: Human IgG1/kappa, expressed in CHO-S cells; also called 47A3E3-hIgG-Bio (biotin-labelled)
B2: 47A3E3 (anti-human HER3 chimeric antibody) (antibody, V domains shown)
VH: B1 VH
VL: DIQMTQSPSTLSASVGDRVTITCRASQSLSRWLAWYQQKPEKAPKLLIYKASSLESGVPSRFSGSGSGTEFTLTISTLQPDDFATYYCQQYKNYYSFGQGTKLEIK
B3: 22B6D2-hIgG (anti-human HER3 fully human antibody) (antibody, V domains shown)
VH: EVHLVESGGGVVQPGRSLRLSCATSGFTFRSYGMHWVRQAPGKGLEWVAVIWYDGSNKYYADSVKGRFTISRDISKNTLYLQMNSLTAEDTAVYYCARYYYDSNGYYDAFDIWGQGTMVTVSS
VL: DIQLTQSPSFLSASVGDRVTITCRASQGISNYLAWYQQKPGKAPKLLIFAASTLQSGVPSRFSGSGSGAEFTLTISSLEPEDFATYYCQQLNSYPITFGQGTRLEIKR
notes: Human IgG1/kappa, expressed in CHO-S cells; also called 22B6D2-hIgG-Bio (biotin-labelled)
B4: 22B6D2 (anti-human HER3 chimeric antibody) (antibody, V domains shown)
VH: B3 VH
VL: DIQLTQSPSFLSASVGDRVTITCRASQGISNYLAWYQQKPGKAPKLLIFAASTLQSGVPSRFSGSGSGAEFTLTISSLEPEDFATYYCQQLNSYPITFGQGTRLEIK
notes: detected with anti-Rat IgG
B5: 100H7D3-hIgG (anti-human HER3 fully human antibody) (antibody, V domains shown)
VH: EVQLVESGGGVVLPGRSLRLSCAASGFTFSRNAMHWVRQAPGKGLEWVAVIWHDGSNKYYGDSVKGRFTISRDNSKNTLYLQMDSLTAEDTAVYYCARDRGASDFRGQGTLVTVSS
VL: DIQMTQSPSTLSASVGDRVTITCRASQSINNWLAWYQQKPEKAPKLLIYKASSLESGVPSRFSGSGSGTEFTLTISSLQPDDFATYYCQQYNSYSLTFGGGTKVEIKR
notes: Human IgG1/kappa, expressed in CHO-S cells; also called 100H7D3-hIgG-Bio (biotin-labelled)
B6: 100H7D3 (anti-human HER3 chimeric antibody) (antibody, V domains shown)
VH: B5 VH
VL: DIQMTQSPSTLSASVGDRVTITCRASQSINNWLAWYQQKPEKAPKLLIYKASSLESGVPSRFSGSGSGTEFTLTISSLQPDDFATYYCQQYNSYSLTFGGGTKVEIK
B7: 44A4A11 (anti-human HER3 chimeric antibody) (antibody, V domains shown)
VH: EVQLLESGGGLVQPGGSLRLSCAASGFTFSSYAMNWVRQAPGKGLEWVSSISDSGGSTYYADSVKGRFTISRDNSKNTLYLQMNSLRAEDTAVYYCAKDGGISMVRGVIIEEGYFDLWGRGTLVTSPQ
VL: DIQLTQSPSFLSASVGDRVTITCRASQGISSYLAWYQQKPGKAPKLLIYVVSTLQSGVPSRFSGSGSGTEFTLTISSLQPEDFATYYCHQLNSYPLTFGGGTKVEIK

Experiments:
[1] = target: T1, monkey HER3 protein (extracellular …); test: BLI (ForteBio), antibody captured on Protein A sensor, monkey HER3-His in solution, 1:1 global fit
Procedure: (§1) The measured results were entered into Data Analysis 11.0 software, by using 1:1 mode, and global fitting; the results were analyzed to obtain the association rate, dissociation rate and affinity constant.

human HER3 on cells [2] = target: T2, human HER3 on cells (human, UniProt P21860 20-1342); test: flow cytometry on T47D cells
T2 construct: whole, on cells; also called T47D; NCI-N87
Procedure: (§2) Data processing: the Median PE values were exported, then imported into GraphPad Prism 6 software, and EC50 values were calculated.

[3] = target: T3, human HER3 protein (extracellular sequence with six histidines at the C-terminal) (human, UniProt P21860 20-643); test: BLI (ForteBio), antibody captured on Protein A sensor, human HER3-His in solution, 1:1 global fit
T3 construct: extracellular domain; Made in HEK293 cells; also called Human HER3-His
Procedure: as §1

[4] = target: T3, human HER3 protein (extracellular …); test: competition ELISA on coated human HER3 protein (1 µg/ml); competitor: biotin-labelled 47A3E3-hIgG (47A3E3-hIgG-Bio, diluted to 15 ng/mL); streptavidin-HRP, OD450
Procedure: (§3) The plate was washed with PBST (0.2% Tween-20) for 3 times, and dried, 100 μl of diluted Peroxidase-conjugated Streptavidin secondary antibody (Proteintech) was added to each well, and incubated at room temperature for 1 hour; the plate was washed 5 times with PBST (0.2% Tween-20), and dried, 100 μl of TMB (InnoReagents) chromogenic substrate was added to each well, reacted at room temperature for 3-5 minutes; 50 μl of 2N H₂SO₄ was added to each well to stop the chromogenic reaction, and OD450 nm absorbance value was read with a microplate reader. The raw data were imported into GraphPad Prism 6 software for nonlinear curve fitting (4-parameter).

[5] = target: T3, human HER3 protein (extracellular …); test: ELISA, coated human HER3-His
Procedure: (§4) The plate was washed 5 times with PBST (0.2% Tween-20), and dried, then 100 μl of TMB (InnoReagents) chromogenic substrate was added to each well, reacted at room temperature for 3-5 minutes, then 50 μl of 2N H₂SO₄ was added to each well to stop the chromogenic reaction, and the absorbance value at OD450 nm was read with a microplate reader. The raw data were imported into GraphPad Prism 6 software for nonlinear curve fitting, and EC50 values were calculated.

[6] = target: T3, human HER3 protein (extracellular …); test: competition ELISA on coated human HER3 protein (1 µg/ml); competitor: biotin-labelled U1-59 (U1-59-Bio, diluted to 50 ng/ml); streptavidin-HRP, OD450
Procedure: as §3

[7] = target: T1, monkey HER3 protein (extracellular …); test: ELISA, coated monkey HER3-His
Procedure: as §4

rat HER3 protein [8] = target: T4, rat HER3 protein (rat, UniProt Q62799 20-643); test: ELISA, rat HER3 protein coated at 1 µg/ml, anti-human IgG-HRP, OD450
T4 construct: whole entry named; also called Rat HER3-His; rat protein
T4 sequence (Q62799 20-643): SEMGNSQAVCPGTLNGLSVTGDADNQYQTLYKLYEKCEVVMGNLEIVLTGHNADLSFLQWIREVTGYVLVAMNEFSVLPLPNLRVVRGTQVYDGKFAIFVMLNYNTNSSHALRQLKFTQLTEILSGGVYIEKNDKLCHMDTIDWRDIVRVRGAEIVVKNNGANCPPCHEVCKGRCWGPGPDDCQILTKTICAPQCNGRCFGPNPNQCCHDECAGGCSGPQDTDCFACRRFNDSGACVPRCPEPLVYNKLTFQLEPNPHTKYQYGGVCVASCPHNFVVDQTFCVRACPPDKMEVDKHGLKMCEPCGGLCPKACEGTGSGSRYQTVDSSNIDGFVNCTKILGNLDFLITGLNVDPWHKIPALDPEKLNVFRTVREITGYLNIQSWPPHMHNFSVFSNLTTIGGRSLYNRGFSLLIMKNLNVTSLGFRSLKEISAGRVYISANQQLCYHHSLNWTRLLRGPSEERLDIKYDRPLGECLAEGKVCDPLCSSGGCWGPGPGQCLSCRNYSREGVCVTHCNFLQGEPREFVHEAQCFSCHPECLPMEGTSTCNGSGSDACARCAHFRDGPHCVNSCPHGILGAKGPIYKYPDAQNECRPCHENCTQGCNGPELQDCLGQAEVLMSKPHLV
Procedure: as §4

human HER3 on cells [9] = target: T2, human HER3 on cells; test: cell-based or functional assay
human HER3 on cells [10] = target: T2, human HER3 on cells; test: flow cytometry on NCI-N87 cells
Procedure: as §2

human HER3 on cells [11] = target: T2, human HER3 on cells; test: flow cytometry on NCI-H358 cells
Procedure: as §2

[12] = target: T1, monkey HER3 protein (extracellular …); test: ELISA, coated monkey HER3 protein, chimeric antibody
Procedure: (§5) The plate was washed 5 times with PBST (0.2% Tween-20). After the plate was dried, 100 μl of TMB (CoWin Biotech) chromogenic substrate was added to each well, reacted at room temperature for 3-5 minutes; 50 μl of 2N H₂SO₄ was added to each well to stop the chromogenic reaction, and absorbance value at OD450 nm was read with a microplate reader. The raw data were imported into GraphPad Prism 6 software for nonlinear curve fitting, and the EC50 values of each antibody binding to human HER3 and monkey HER3 were calculated.

[13] = target: T3, human HER3 protein (extracellular …); test: ELISA, coated human HER3 protein, chimeric antibody
Procedure: as §5

human HER3 on cells [14] = target: T2, human HER3 on cells; test: cell-based or functional assay; remark: listed apart in the source
[15] = target: T3, human HER3 protein (extracellular …); test: competition ELISA on coated human HER3 protein (1 µg/ml); competitor: biotin-labelled 22B6D2-hIgG (22B6D2-hIgG-Bio, diluted to 3 ng/mL); streptavidin-HRP, OD450
Procedure: as §3

human HER3 on cells [16] = target: T2, human HER3 on cells; test: cell-based or functional assay; remark: listed apart in the source
human HER3 on cells [17] = target: T2, human HER3 on cells; test: competition flow cytometry on adherent cells (cell line not named in paragraph 175); competitor: 22B6D2-hIgG-Bio, final 25 ng/ml; PE streptavidin
Description: (§6) Data processing: the Median PE values were exported, and then imported into GraphPad Prism 6 software for nonlinear curve fitting (4-parameter).

human HER3 on cells [18] = target: T2, human HER3 on cells; test: cell-based or functional assay; remark: listed apart in the source
rat HER3 protein [19] = target: T4, rat HER3 protein; test: ELISA, coated rat HER3-His
Procedure: as §4

human HER3 on cells [20] = target: T2, human HER3 on cells; test: competition flow cytometry on adherent cells (cell line not named in paragraph 175); competitor: 100H7D3-hIgG-Bio, final 200 ng/ml; PE streptavidin
Description: as §6

Row | Binder | Kd [1] | koff [1] | kon [1] | EC50 (human HER3 on cells [2]) | Kd [3] | koff [3] | kon [3] | EC50 [5] | EC50 [7] | ADCC activity, EC50 (Jurkat-NFAT/luciferase-CD16a reporter with CHO-S-hHER3 target cells) (human HER3 on cells [9]) | EC50 (human HER3 on cells [10]) | EC50 (human HER3 on cells [11]) | EC50 [12] | EC50 [13] | other results
1 | B1 | 74.8 nM | 0.0111 s⁻¹ | 148000 M⁻¹ s⁻¹ | 0.0601 µg/mL | 29.1 nM | 0.0104 s⁻¹ | 356000 M⁻¹ s⁻¹ | 7.13 ng/mL | 6.66 ng/mL | 22.3 ng/mL | 0.0923 µg/mL | 0.0989 µg/mL | – | – | IC50 (read off the curve) [4]: ~500 ng/mL; IC50 (read off the curve) [6]: ~100 ng/mL; binding result (rat HER3 protein [8]): no binding
2 | B2 | – | – | – | – | – | – | – | – | – | – | – | – | 10.1 ng/mL | 0.0096 µg/mL | –
3 | B3 | 49.6 nM | 0.00825 s⁻¹ | 166000 M⁻¹ s⁻¹ | 0.0383 µg/mL | 11.1 nM | 0.00397 s⁻¹ | 357000 M⁻¹ s⁻¹ | 4.07 ng/mL | 3.63 ng/mL | 9.73 ng/mL | 0.0446 µg/mL | 0.0857 µg/mL | – | – | IC50 of inhibition of ligand (NRG1)-induced AKT phosphorylation in MCF-7 cells (human HER3 on cells [14]): 91.2 ng/mL; IC50 (read off the curve) [15]: ~400 ng/mL; ADCC activity, enhancement against U1-59 (human HER3 on cells [16]): 1.86 fold; IC50 (read off the curve) (human HER3 on cells [17]): ~100 ng/mL; internalization activity, EC50, HPAF-II cells (flow cytometry) (human HER3 on cells [18]): 29.4 ng/mL; internalization activity, EC50, MDA-MB-453 cells (flow cytometry) (human HER3 on cells [18]): 22.9 ng/mL; internalization activity, EC50, NCI-358 cells (flow cytometry) (human HER3 on cells [18]): 67 ng/mL; internalization activity, EC50, WIDR cells (flow cytometry) (human HER3 on cells [18]): 30.1 ng/mL
4 | B4 | – | – | – | – | – | – | – | – | – | – | – | – | 7.1 ng/mL | 0.0054 µg/mL | –
5 | B5 | 5.44 nM | 0.000926 s⁻¹ | 170000 M⁻¹ s⁻¹ | 0.203 µg/mL | 7.47 nM | 0.00226 s⁻¹ | 302000 M⁻¹ s⁻¹ | 8.49 ng/mL | 13.1 ng/mL | 25.7 ng/mL | 0.218 µg/mL | 0.29 µg/mL | – | – | EC50 (rat HER3 protein [19]): 9.37 ng/mL; IC50 (read off the curve) (human HER3 on cells [20]): ~400 ng/mL
6 | B6 | – | – | – | – | – | – | – | – | – | – | – | – | 18.7 ng/mL | 0.0131 µg/mL | –
7 | B7 | – | – | – | – | – | – | – | – | – | – | – | – | 6.5 ng/mL | 0.0121 µg/mL | –
